From publication PMC8298264, “Function of cofactor Akirin2 in the regulation of gene expression in model human neutrophil-like HL60 cells” (Bioscience Reports, 2021) come the findings set out here.

The subject of this assay is human HL60 cells. Briefly: SWATH-MS proteomics, differential protein representation, akirin2 KO vs WT HL60 cells. The assay is classed as cell-based. Particulars: akirin2 KO vs WT HL60 cells; sheet "Under-represented in KO". Summed up: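 Proteins from WT and akirin2 KO HL60 cells (n=3 biological replicates) were FASP trypsin-digested and analyzed by SWATH-MS DIA with variable windows against an IDA-derived spectral library. Identifications at 1% global FDR; quantities normalized to total area sums of all detected proteins.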

B1: sp¦Q04837¦SSBP_HUMAN (protein, UniProt Q04837 17-148, looked up)
Single-stranded DNA-binding …: ESETTTSLVLERSLNRVHLLGRVGQDPVLRQVEGKNPVTIFSLATNEMWRSGDSEVYQLGDVSQKTTWHRISVFRPGLRDVAYQYVKKGSRIYLEGKIDYGEYMDKNNVRRQATTIIADNIIFLSDQTKEKE
On to B1, for which the “Fold Change” value is recorded as 0.6781 and the “Log (Fold Change)” value is reported as -0.1687.

B2: sp¦P56192¦SYMC_HUMAN (protein, UniProt P56192 1-900, looked up)
Methionine--tRNA ligase, …: MRLFVSDGVPGCLPVLAAAGRARGRAEVLISTVGPEDCVVPFLTRPKVPVLQLDSGNYLFSTSAICRYFFLLSGWEQDDLTNQWLEWEATELQPALSAALYYLVVQGKKGEDVLGSVRRALTHIDHSLSRQNCPFLAGETESLADIVLWGALYPLLQDPAYLPEELSALHSWFQTLSTQEPCQRAAETVLKQQGVLALRPYLQKQPQPSPAEGRAVTNEPEEEELATLSEEEIAMAVTAWEKGLESLPPLRPQQNPVLPVAGERNVLITSALPYVNNVPHLGNIIGCVLSADVFARYSRLRQWNTLYLCGTDEYGTATETKALEEGLTPQEICDKYHIIHADIYRWFNISFDIFGRTTTPQQTKITQDIFQQLLKRGFVLQDTVEQLRCEHCARFLADRFVEGVCPFCGYEEARGDQCDKCGKLINAVELKKPQCKVCRSCPVVQSSQHLFLDLPKLEKRLEEWLGRTLPGSDWTPNAQFITRSWLRDGLKPRCITRDLKWGTPVPLEGFEDKVFYVWFDATIGYLSITANYTDQWERWWKNPEQVDLYQFMAKDNVPFHSLVFPCSALGAEDNYTLVSHLIATEYLNYEDGKFSKSRGVGVFGDMAQDTGIPADIWRFYLLYIRPEGQDSAFSWTDLLLKNNSELLNNLGNFINRAGMFVSKFFGGYVPEMVLTPDDQRLLAHVTLELQHYHQLLEKVRIRDALRSILTISRHGNQYIQVNEPWKRIKGSEADRQRAGTVTGLAVNIAALLSVMLQPYMPTVSATIQAQLQLPPPACSILLTNFLCTLPAGHQIGTVSPLFQKLENDQIESLRQRFGGGQAKTSPKPAVVETVTTAKPQQIQALMDEVTKQGNIVRELKAQKADKNEVAAEVAKLLDLKKQLAVAEGKPPEAPKGKKKK
As for B2, the “Fold Change” value is 0.6651 and the “Log (Fold Change)” value is -0.1771.

B3: sp¦B0I1T2¦MYO1G_HUMAN (protein, UniProt B0I1T2 1-1018, looked up)
Unconventional myosin-Ig: MEDEEGPEYGKPDFVLLDQVTMEDFMRNLQLRFEKGRIYTYIGEVLVSVNPYQELPLYGPEAIARYQGRELYERPPHLYAVANAAYKAMKHRSRDTCIVISGESGAGKTEASKHIMQYIAAVTNPSQRAEVERVKDVLLKSTCVLEAFGNARTNRNHNSSRFGKYMDINFDFKGDPIGGHIHSYLLEKSRVLKQHVGERNFHAFYQLLRGSEDKQLHELHLERNPAVYNFTHQGAGLNMTVHSALDSDEQSHQAVTEAMRVIGFSPEEVESVHRILAAILHLGNIEFVETEEGGLQKEGLAVAEEALVDHVAELTATPRDLVLRSLLARTVASGGRELIEKGHTAAEASYARDACAKAVYQRLFEWVVNRINSVMEPRGRDPRRDGKDTVIGVLDIYGFEVFPVNSFEQFCINYCNEKLQQLFIQLILKQEQEEYEREGITWQSVEYFNNATIVDLVERPHRGILAVLDEACSSAGTITDRIFLQTLDMHHRHHLHYTSRQLCPTDKTMEFGRDFRIKHYAGDVTYSVEGFIDKNRDFLFQDFKRLLYNSTDPTLRAMWPDGQQDITEVTKRPLTAGTLFKNSMVALVENLASKEPFYVRCIKPNEDKVAGKLDENHCRHQVAYLGLLENVRVRRAGFASRQPYSRFLLRYKMTCEYTWPNHLLGSDKAAVSALLEQHGLQGDVAFGHSKLFIRSPRTLVTLEQSRARLIPIIVLLLQKAWRGTLARWRCRRLRAIYTIMRWFRRHKVRAHLAELQRRFQAARQPPLYGRDLVWPLPPAVLQPFQDTCHALFCRWRARQLVKNIPPSDMPQIKAKVAAMGALQGLRQDWGCRRAWARDYLSSATDNPTASSLFAQRLKTLQDKDGFGAVLFSSHVRKVNRFHKIRNRALLLTDQHLYKLDPDRQYRVMRAVPLEAVTGLSVTSGGDQLVVLHARGQDDLVVCLHRSRPPLDNRVGELVGVLAAHCQGEGRTLEVRVSDCIPLSHRGVRRLISVEPRPEQPEPDFRCARGSFTLLWPSR
In the case of B3, the “Fold Change” value is 0.6785 and the “Log (Fold Change)” value is -0.1685.

B4: sp¦Q13451¦FKBP5_HUMAN (protein, UniProt Q13451 1-457, looked up)
Peptidyl-prolyl cis-trans …: MTTDEGAKNNEESPTATVAEQGEDITSKKDRGVLKIVKRVGNGEETPMIGDKVYVHYKGKLSNGKKFDSSHDRNEPFVFSLGKGQVIKAWDIGVATMKKGEICHLLCKPEYAYGSAGSLPKIPSNATLFFEIELLDFKGEDLFEDGGIIRRTKRKGEGYSNPNEGATVEIHLEGRCGGRMFDCRDVAFTVGEGEDHDIPIGIDKALEKMQREEQCILYLGPRYGFGEAGKPKFGIEPNAELIYEVTLKSFEKAKESWEMDTKEKLEQAAIVKEKGTVYFKGGKYMQAVIQYGKIVSWLEMEYGLSEKESKASESFLLAAFLNLAMCYLKLREYTKAVECCDKALGLDSANEKGLYRRGEAQLLMNEFESAKGDFEKVLEVNPQNKAARLQISMCQKKAKEHNERDRRIYANMFKKFAEQDAKEEANKAMGKKTSEGVTNEKGTDSQAMEEEKPEGHV
Turning to B4, the “Fold Change” value is listed as 0.6681 and the “Log (Fold Change)” value is -0.1751.

B5: sp¦Q13895¦BYST_HUMAN (protein, UniProt Q13895 1-437, looked up)
Bystin: MPKFKAARGVGGQEKHAPLADQILAGNAVRAGVREKRRGRGTGEAEEEYVGPRLSRRILQQARQQQEELEAEHGTGDKPAAPRERTTRLGPRMPQDGSDDEDEEWPTLEKAATMTAAGHHAEVVVDPEDERAIEMFMNKNPPARRTLADIIMEKLTEKQTEVETVMSEVSGFPMPQLDPRVLEVYRGVREVLSKYRSGKLPKAFKIIPALSNWEQILYVTEPEAWTAAAMYQATRIFASNLKERMAQRFYNLVLLPRVRDDVAEYKRLNFHLYMALKKALFKPGAWFKGILIPLCESGTCTLREAIIVGSIITKCSIPVLHSSAAMLKIAEMEYSGANSIFLRLLLDKKYALPYRVLDALVFHFLGFRTEKRELPVLWHQCLLTLVQRYKADLATDQKEALLELLRLQPHPQLSPEIRRELQSAVPRDVEDVPITVE
Regarding B5, the “Fold Change” value is 0.6611 and the “Log (Fold Change)” value is -0.1797.

B6: sp¦Q6IBS0¦TWF2_HUMAN (protein, UniProt Q6IBS0 2-349, looked up)
Twinfilin-2: AHQTGIHATEELKEFFAKARAGSVRLIKVVIEDEQLVLGASQEPVGRWDQDYDRAVLPLLDAQQPCYLLYRLDSQNAQGFEWLFLAWSPDNSPVRLKMLYAATRATVKKEFGGGHIKDELFGTVKDDLSFAGYQKHLSSCAAPAPLTSAERELQQIRINEVKTEISVESKHQTLQGLAFPLQPEAQRALQQLKQKMVNYIQMKLDLERETIELVHTEPTDVAQLPSRVPRDAARYHFFLYKHTHEGDPLESVVFIYSMPGYKCSIKERMLYSSCKSRLLDSVEQDFHLEIAKKIEIGDGAELTAEFLYDEVHPKQHAFKQAFAKPKGPGGKRGHKRLIRGPGENGDDS
For B6, the “Fold Change” value turned out to be 0.6717 and the “Log (Fold Change)” value is given as -0.1728.

B7: sp¦Q96I99¦SUCB2_HUMAN (protein, UniProt Q96I99 38-432, looked up)
Succinate--CoA ligase …: LNLQEYQSKKLMSDNGVRVQRFFVADTANEALEAAKRLNAKEIVLKAQILAGGRGKGVFNSGLKGGVHLTKDPNVVGQLAKQMIGYNLATKQTPKEGVKVNKVMVAEALDISRETYLAILMDRSCNGPVLVGSPQGGVDIEEVAASNPELIFKEQIDIFEGIKDSQAQRMAENLGFVGPLKSQAADQITKLYNLFLKIDATQVEVNPFGETPEGQVVCFDAKINFDDNAEFRQKDIFAMDDKSENEPIENEAAKYDLKYIGLDGNIACFVNGAGLAMATCDIIFLNGGKPANFLDLGGGVKEAQVYQAFKLLTADPKVEAILVNIFGGIVNCAIIANGITKACRELELKVPLVVRLEGTNVQEAQKILNNSGLPITSAIDLEDAAKKAVASVAKK
Regarding B7, the “Fold Change” value came out at 0.6651 and the “Log (Fold Change)” value was -0.1771.

B8: sp¦P21912¦SDHB_HUMAN (protein, UniProt P21912 29-280, looked up)
Succinate dehydrogenase …: AQTAAATAPRIKKFAIYRWDPDKAGDKPHMQTYEVDLNKCGPMVLDALIKIKNEVDSTLTFRRSCREGICGSCAMNINGGNTLACTRRIDTNLNKVSKIYPLPHMYVIKDLVPDLSNFYAQYKSIEPYLKKKDESQEGKQQYLQSIEEREKLDGLYECILCACCSTSCPSYWWNGDKYLGPAVLMQAYRWMIDSRDDFTEERLAKLQDPFSLYRCHTIMNCTRTCPKGLNPGKAIAEIKKMMATYKEKKASV
For the molecule B8, the “Fold Change” value stood at 0.6622 and the “Log (Fold Change)” value is -0.179.

B9: sp¦P34897¦GLYM_HUMAN (protein, UniProt P34897 30-504, looked up)
Serine …: NAAQTQTGEANRGWTGQESLSDSDPEMWELLQREKDRQCRGLELIASENFCSRAALEALGSCLNNKYSEGYPGKRYYGGAEVVDEIELLCQRRALEAFDLDPAQWGVNVQPYSGSPANLAVYTALLQPHDRIMGLDLPDGGHLTHGYMSDVKRISATSIFFESMPYKLNPKTGLIDYNQLALTARLFRPRLIIAGTSAYARLIDYARMREVCDEVKAHLLADMAHISGLVAAKVIPSPFKHADIVTTTTHKTLRGARSGLIFYRKGVKAVDPKTGREIPYTFEDRINFAVFPSLQGGPHNHAIAAVAVALKQACTPMFREYSLQVLKNARAMADALLERGYSLVSGGTDNHLVLVDLRPKGLDGARAERVLELVSITANKNTCPGDRSAITPGGLRLGAPALTSRQFREDDFRRVVDFIDEGVNIGLEVKSKTAKLQDFKSFLLKDSETSQRLANLRQRVEQFARAFPMPGFDEH
Consider B9, for which the “Fold Change” value was found to be 0.6722 and the “Log (Fold Change)” value is -0.1725.

B10: sp¦Q86Y56¦DAAF5_HUMAN (protein, UniProt Q86Y56 2-855, looked up)
Dynein axonemal assembly …: AALGVAEAVAAPHPAEGAETAEAVELSRALSRLLPGLEADSKPGRRRALEALRRALEEPGPAADPTAFQGPWARLLLPRLLRCLSDPAEGCRALAVHLLDLGLRRAARPRDALPRLLPALAARLAGPVPARRPPEACEELRLALVQLLGLAVDLCGAALAPHLDDALRALRCSLLDPFAAVRRESCSCAAALAQATPDHFHMQSESLIGPLMQTISHQHWKVRVAAIEATGAVIHFGNGKSVDDVLSHFAQRLFDDVPQVRRAVASVVGGWLLCLRDRYSFFHKLIPLLLSSLNDEVPEVRQLAASLWEDVGLQWQKENEEDLKDKLDFAPPTPPHYPPHERRPVLGCRELVFRNLSKILPALCHDITDWVVGTRVKSAQLLPVLLLHAEDHATQHLEVVLRTLFQACTDEEAAVVQSCTRSAELVGTFVSPEVFLKLILSTLKKTPSASGLLVLASAMRGCPREALQPHLAAIATELAQAHICQASENDLYLERLLLCVQALVSVCHEDCGVASLQLLDVLLTIVALAGATGLRDKAQETMDSLAMVEGVSSCQDLYRKHIGPLLERVTASHLDWTAHSPELLQFSVIVAQSGPALGEALPHVVPTLRACLQPSQDPQMRLKLFSILSTVLLRATDTINSQGQFPSYLETVTKDILAPNLQWHAGRTAAAIRTAAVSCLWALTSSEVLSAEQIRDVQETLMPQVLTTLEEDSKMTRLISCRIINTFLKTSGGMTDPEKLIRIYPELLKRLDDVSNDVRMAAASTLVTWLQCVKGANAKSYYQSSVQYLYRELLVHLDDPERAIQDAILEVLKEGSGLFPDLLVRETEAVIHKHRSATYCEQLLQHVQAVPATQ
With B10, the “Fold Change” value was found to be 0.3018 and the “Log (Fold Change)” value is reported as -0.5202.
